Assay results as given in patent US9273304B2, “Inactivation method” (Thermo Fisher Scientific Baltics UAB, priority 2006, dated 2016).

Key:
Assay type in all cases: biochemical
[1] = biological target: T1, Taq DNA polymerase (Thermus aquaticus, UniProt P19821); assay: Polymerase activity assay: incorporation of [3H]-dTTP into the polynucleotide adsorbed on DE-81 in 30 min at 70° C.; details: for Activity at 70° C. (%) After 10 min. preheating at 95° C. / Activity at 70° C. (%) Without preheating at 95° C.: aqueous solution
T1 sequence (P19821 whole entry): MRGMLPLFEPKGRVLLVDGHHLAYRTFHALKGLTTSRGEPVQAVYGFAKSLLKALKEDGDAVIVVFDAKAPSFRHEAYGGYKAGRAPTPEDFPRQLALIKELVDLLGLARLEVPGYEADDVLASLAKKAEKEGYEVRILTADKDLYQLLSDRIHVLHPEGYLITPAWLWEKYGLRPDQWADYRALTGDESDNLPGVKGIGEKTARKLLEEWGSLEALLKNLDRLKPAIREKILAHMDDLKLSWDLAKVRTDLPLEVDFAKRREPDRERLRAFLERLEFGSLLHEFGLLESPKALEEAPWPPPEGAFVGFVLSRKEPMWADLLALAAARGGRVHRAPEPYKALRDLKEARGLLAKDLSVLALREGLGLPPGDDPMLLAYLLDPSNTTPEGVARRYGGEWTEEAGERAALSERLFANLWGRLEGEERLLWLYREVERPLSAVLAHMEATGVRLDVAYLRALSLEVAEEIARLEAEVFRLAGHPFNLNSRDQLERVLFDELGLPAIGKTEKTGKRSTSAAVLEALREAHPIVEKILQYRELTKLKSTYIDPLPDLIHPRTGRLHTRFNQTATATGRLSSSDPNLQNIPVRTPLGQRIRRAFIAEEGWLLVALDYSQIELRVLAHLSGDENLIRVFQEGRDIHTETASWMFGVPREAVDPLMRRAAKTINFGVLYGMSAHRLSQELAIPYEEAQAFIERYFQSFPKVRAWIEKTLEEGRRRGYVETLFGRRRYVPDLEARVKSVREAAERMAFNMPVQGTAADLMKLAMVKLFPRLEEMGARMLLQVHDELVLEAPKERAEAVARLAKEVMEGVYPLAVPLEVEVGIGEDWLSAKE
Description: The measure of the enzyme activity was incorporation of [^3H]-dTTP into polynucleotide fraction. One unit of polymerase activity is defined as the enzyme amount which incorporates 10 nmoles of deoxyribonucleotides into the polynucleotide adsorbed on DE-81 in 30 min at 70° C.
For activity assays, Taq DNA polymerase was diluted up to 4 u/ml with the dilution buffer of the following composition: 20 mM Tris-HCl (pH 8.8 at 25° C.), 1 mM EDTA, 1 mM DTT, and BSA (0.1 mg/ml). Reactions were carried out at 70° C. for 30 min with 5 μl of the diluted enzyme in 50 μl of the reaction buffer of the following composition: 67 mM Tris-HCl (pH 8.8 at 25° C.), 50 mM NaCl, 6.7 mM MgCl2, 1 mM DTT, and BSA (0.1 mg/ml). The reaction buffer was supplemented with 0.2 mM dNTP, [3H]-dTTP (0.4 MBq/ml) and 0.75 mM activated DNA from calf thymus.
Activity of the modified enzymes was measured either with the pre-incubation step, or without it, for 10 min at 95° C. in the pre-heating buffer of the following composition: 20 mM Tris-HCl (pH 8.25 at 25° C.), 100 mM KCl, 2 mM MgCl2, 0.5% Tween 20, 0.5% Nonidet P40, and 16% glycerol.
Aliquots (35 μl) of the enzyme solution were mixed with 2.25 μl aliquots of the N-ethoxycarbonyl-2,3-dimethylmaleinimide solutions described above resulting in the following molar ratios of Taq DNA polymerase to N-ethoxycarbonyl-2,3-dimethylmaleinimide: 1/1280 1/640, 1/320, 1/160, 1/110, 1/80, 1/40. The mixtures were incubated for 20 hours at 4° C. to modify the Taq DNA polymerase. Control samples, in which the enzyme was left unmodified (e.g., the ratio was 1/0), were obtained by mixing the Taq DNA polymerase with a 2.25 μl aliquot of DMF. These control samples were incubated under the same conditions as the modified ones.
The samples of the unmodified Taq DNA polymerase and the modified Taq DNA polymerases were diluted 250-fold in the pre-heating buffer (see Example 2) and activities of the modified enzyme were measured both before heat-reactivation and after it, as described in the Example 2. Activities of both inactivated and heat-reactivated DNA polymerases were determined as described in the Example 2, and the data were normalized to activity of the unmodified Taq DNA polymerase
Aliquots (20.6 μl) of the diluted enzyme solution were mixed with 1 μl of N-isobutoxycarbonyl-2,3-dimethylmaleinimide solutions described above resulting in different molar ratios of Taq DNA polymerase to N-isobutoxycarbonyl-2,3-dimethylmaleinimide (1/320, 1/160, 1/80 and 1/40). The mixtures were incubated 20 hours at 4° C. to modify the Taq DNA polymerase. Control samples, in which the enzyme was left unmodified (e.g., the ratio was 1/0), were obtained by mixing the Taq DNA polymerase with a 1 μl aliquot of DMF. These control samples were incubated under the same conditions as the modified ones. The heat-reactivation of the modified enzymes was performed as described in the Example 3.

[2] = biological target: T1, Taq DNA polymerase; assay: Reactivation of the modified Taq DNA polymerase by pre-incubation, activity measured at 50° C.
Description: The activity of modified Taq DNA polymerase was assayed as described in the Example 2. The enzyme was pre-incubated at different temperatures in the pre-heating buffer (see Example 2), its activity was measured at 50° C. in the reaction buffer of the following composition: 50 mM Tris (pH 8.4 at 25° C.), 10 mM KCl, 5 mM (NH4)2SO4 and 2 mM MgCl2. The activity of the modified DNA polymerase was normalized the activity of the unmodified one.

[3] = biological target: T1, Taq DNA polymerase; assay: Temperature effect on activity of modified versus unmodified Taq DNA polymerase; details: FIG. 7
Description: The activity assay for both DNA polymerases was as described in the Example 2 with the following modifications: • 1. DNA polymerization using the unmodified DNA polymerase was carried out in the buffer of the following composition: 10 mM Tris-HCl (pH 8.8 at 25° C.), 50 mM KCl, 1.5 mM MgCl2, and 0.08% Nonidet P40. • 2. DNA polymerization using the modified DNA polymerase was carried out in the buffer of the following composition: 20 mM Tris-HCl (pH 8.3 at 25° C.), 20 mM KCl, 5 mM (NH4)2SO4, and 1.5 mM MgCl2.
Enzyme activities at different temperatures were normalized to the activity of the unmodified Taq DNA polymerase at 70° C.

[4] = molar ratio Taq DNA polymerase/N-etoxycarbonyl-2,3-dimethylmaleinimide 1/80
[5] = molar ratio Taq DNA polymerase/N-etoxycarbonyl-2,3-dimethylmaleinimide 1/110
[6] = molar ratio Taq DNA polymerase/N-etoxycarbonyl-2,3-dimethylmaleinimide 1/160
[7] = molar ratio Taq DNA polymerase/N-etoxycarbonyl-2,3-dimethylmaleinimide 1/320
[8] = molar ratio Taq DNA polymerase/N-etoxycarbonyl-2,3-dimethylmaleinimide 1/640
[9] = molar ratio Taq DNA polymerase/N-etoxycarbonyl-2,3-dimethylmaleinimide 1/1280

Taq DNA polymerase modified with N-etoxycarbonyl-2,3-dimethylmaleinimide: Recombinant Taq DNA polymerase reversibly inactivated by reaction with N-ethoxycarbonyl-2,3-dimethylmaleinimide in aqueous solution (preferred molar ratio 1/110)
restoration of the enzyme activity after incubation for 10 min at 94° C. ([1]; incubation 10 min at 94° C.): almost in the complete restoration of the enzyme activity | Activity at 70° C. (%) After 10 min. preheating at 95° C. ([1]; molar ratio Taq DNA polymerase/N-etoxycarbonyl-2,3-dimethylmaleinimide 1/40): ~100% | Activity at 70° C. (%) Without preheating at 95° C. ([1]; molar ratio Taq DNA polymerase/N-etoxycarbonyl-2,3-dimethylmaleinimide 1/40, normalized to unmodified enzyme): ~30% | Activity at 70° C. (%) After 10 min. preheating at 95° C. [1, 4]: ~90% | Activity at 70° C. (%) Without preheating at 95° C. [1, 4]: ~20% | Activity at 70° C. (%) After 10 min. preheating at 95° C. [1, 5]: ~100% | Activity at 70° C. (%) Without preheating at 95° C. [1, 5]: ~20% | Activity at 70° C. (%) After 10 min. preheating at 95° C. [1, 6]: ~90% | Activity at 70° C. (%) Without preheating at 95° C. [1, 6]: ~20% | Activity at 70° C. (%) After 10 min. preheating at 95° C. [1, 7]: ~90% | Activity at 70° C. (%) Without preheating at 95° C. [1, 7]: ~30% | Activity at 70° C. (%) After 10 min. preheating at 95° C. [1, 8]: ~50% | Activity at 70° C. (%) Without preheating at 95° C. [1, 8]: ~40% | Activity at 70° C. (%) After 10 min. preheating at 95° C. [1, 9]: ~80% | Activity at 70° C. (%) Without preheating at 95° C. [1, 9]: ~90% | specific activity retained at 70° C. temperature without preheating ([1]; several independent experiments, preferred modification (N-ethoxycarbonyl-2,3-dimethylmaleinimide, aqueous, 1/110)): 21±6% | Activity at 50° C. (%) ([2]; incubation time at 95° C. 0 min): ~0% | Activity at 50° C. (%) ([2]; incubation time at 95° C. 0.5 min, listed as modified Taq DNA polymerase): ~60% | Activity at 50° C. (%) ([2]; incubation time at 95° C. 0.5 min, listed as modified enzyme): ~60% | Activity at 50° C. (%) ([2]; incubation time at 95° C. 1 min, listed as modified Taq DNA polymerase): ~90% | Activity at 50° C. (%) ([2]; incubation time at 95° C. 1 min, listed as modified enzyme): ~90% | Activity at 50° C. (%) ([2]; incubation time at 95° C. 1.5 min): ~90% | Activity at 50° C. (%) ([2]; incubation time at 95° C. 2.0 min): ~100% | Activity at 50° C. (%) ([2]; incubation time at 95° C. 3.0 min): ~100% | reactivation by preheating at 90° C. ([2]; preheated at 90° C. for several minutes, FIG. 8): regained full activity | residual activity at 70° C. ([3]; 70° C., normalized to unmodified Taq DNA polymerase at 70° C.): ~20% | activity at different temperatures up to 50° C. ([3]; up to 50° C., without reactivation): practically inactive
